Experimental data taken from patent publication US20090311784A1 (WISCONSIN ALUMNI RESEARCH FOUNDATION, published 2009).
Residue numbers refer to the chain shown, from its start. In names and notes the source's numbering stands.

T1: human ribonuclease inhibitor (human, UniProt P13489 2-461)
T1 construct: also called hRI; hR1
T1 sequence: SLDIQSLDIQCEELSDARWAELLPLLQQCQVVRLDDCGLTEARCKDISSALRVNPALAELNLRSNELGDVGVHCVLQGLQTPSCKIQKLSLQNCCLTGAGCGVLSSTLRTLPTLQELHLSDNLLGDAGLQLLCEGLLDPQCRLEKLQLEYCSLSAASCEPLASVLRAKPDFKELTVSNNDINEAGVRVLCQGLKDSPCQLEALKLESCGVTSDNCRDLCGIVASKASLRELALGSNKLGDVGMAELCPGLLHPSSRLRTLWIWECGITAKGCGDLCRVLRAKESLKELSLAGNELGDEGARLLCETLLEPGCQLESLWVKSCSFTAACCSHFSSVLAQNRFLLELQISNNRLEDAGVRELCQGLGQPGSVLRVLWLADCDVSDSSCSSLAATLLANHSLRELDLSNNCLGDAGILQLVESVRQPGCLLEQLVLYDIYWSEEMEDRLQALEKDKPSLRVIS

B1: G38R/R39G/N67R/N88R RNase 1 (enzyme)
chain: KESRAKKFQRQHMDSDSSPSSSSTYCNQMMRRRNMTQRGCKPVNTFVHEPLVDVQNVCFQEKVTCKRGQGNCYKSNSSMHITDCRLTRGSRYPNCAYRTSPKERHIIVACEGSPYVPVHFDASVEDST
notes: Made by site-directed mutagenesis and purified like wild-type RNase 1
B2: R39L/N67L/N88A/G89L/R91L RNase 1 (enzyme)
chain: B1 chain with R38G, G39L, R67L, R88A, G89L, R91L
B3: R39D/N67D/G89D/R91D RNase 1 (enzyme)
chain: B1 chain with R38G, G39D, R67D, R88N, G89D, R91D
B4: R39D/N67D/N88A/G89D/R91D RNase 1 (enzyme)
chain: B1 chain with R38G, G39D, R67D, R88A, G89D, R91D
B5: R39D/N67D/N88A/G89D RNase 1 (enzyme)
chain: B1 chain with R38G, G39D, R67D, R88A, G89D
B6: N67D/N88A/G89D/R91D RNase 1 (enzyme)
chain: B1 chain with R38G, G39R, R67D, R88A, G89D, R91D
B7: R39D/N88A/G89D/R91D RNase 1 (enzyme)
chain: B1 chain with R38G, G39D, R67N, R88A, G89D, R91D
B8: R39D/N67D/N88A/R91D RNase 1 (enzyme)
chain: B1 chain with R38G, G39D, R67D, R88A, R91D
B9: fluorescein-labeled G88R RNase A (enzyme)
chain: KETAAAKFERQHMDSSTSCASSSNYCNQMMKSRNLTKDRCKPVNTFVHESLADVQAVCSQKNVACKNGQTNCYQSYSTMSITDCRETRSSKYPNCAYKTTQANKHIIVACEGNPYVPVHFDASV
modifications: fluorescein on Cys19 (F*-A19C)
notes: also called F*-A19C G88R RNase A; fluorescently-labeled G88R RNase A

Key:
[1] = target: T1, human ribonuclease inhibitor; test: calculated from Kd: ΔΔG = -RTln(Kd wild-type/Kd variant)
Excerpt: (§1) Values for Kd were obtained by nonlinear least-squares analysis of the binding isotherm using the program […] 5.5 (Red Rock Software, Salt Lake City, Utah).

[2] = target: T1, human ribonuclease inhibitor; test: fluorescence competition assay with fluorescein-labeled G88R RNase A for hRI
Excerpt: as §1
Data points are the mean (±SE) of at least three separate measurements.

[3] = target: T1, human ribonuclease inhibitor; test: ΔΔG of R39D/N67D/N88A/G89D/R91D RNase 1 minus ΔΔG of this variant
Excerpt: as §1

[4] = target: T1, human ribonuclease inhibitor; test: constant used in the fluorescence competition assay
Excerpt: as §1

| Binder | ΔΔG [1] | Kd [2] | ΔΔΔG [3] | Kd [4] |
| --- | --- | --- | --- | --- |
| B1 | 3 kcal/mol | – | – | – |
| B2 | 7.1 kcal/mol | 30 nM | 2.4 kcal/mol | – |
| B3 | 9.1 kcal/mol | 1000 nM | 0.4 kcal/mol | – |
| B4 | 9.5 kcal/mol | – | – | – |
| B5 | 6.7 kcal/mol | – | 2.8 kcal/mol | – |
| B6 | 7.3 kcal/mol | – | 2.2 kcal/mol | – |
| B7 | 7.6 kcal/mol | – | 1.9 kcal/mol | – |
| B8 | 8.4 kcal/mol | – | 1.1 kcal/mol | – |
| B9 | – | – | – | 1.4 nM |
